# Results: publication PMC4776207
# Molecular target: ISAV s8ORF2 protein (protein encoded by the largest open reading frame of gene segment 8) (infectious salmon anaemia virus (ISAV), strain Glesvaer/2/90)
# Test: non-reducing SDS-PAGE with western blot
substance,measurement,value
ISAV s8ORF2 protein (protein encoded by the largest open reading frame of gene segment 8) (natural protein),stoichiometry N,2
